From PMC3741272, “Identification and Characterization of a Novel aac(6′)-Iag Associated with the bla IMP-1–Integron in a Multidrug-Resistant Pseudomonas aeruginosa” (PLoS ONE, 2013)

Columns and labels:
Test in all cases: purified protein
Type in all cases: biochemical, Pseudomonas aeruginosa
Settings in all cases: 200 µM acetyl-CoA, 2 mM DTNB, 50 mM phosphate pH 7.0, 37°C
[1] = test system: NC[C@H]1O[C@H](O[C@H]2[C@H](O)[C@@H](O[C@H]3O[C@H](CO)[C@@H](O)[C@H](N)[C@H]3O)[C@H](N)C[C@@H]2N)[C@H](N)C[C@@H]1O
[2] = test system: NC[C@@H]1CC[C@@H](N)[C@@H](O[C@H]2[C@H](O)[C@@H](O[C@H]3O[C@H](CO)[C@@H](O)[C@H](N)[C@H]3O)[C@H](N)C[C@@H]2N)O1
[3] = test system: NC[C@H]1O[C@H](O[C@H]2[C@H](O)[C@@H](O[C@H]3O[C@H](CO)[C@@H](O)[C@H](N)[C@H]3O)[C@H](N)C[C@@H]2N)[C@H](O)[C@@H](O)[C@@H]1O
[4] = test system: CN[C@@H]1[C@@H](O)[C@@H](O[C@@H]2[C@@H](O)[C@H](O[C@H]3O[C@H](CN)[C@@H](O)[C@H](O)[C@H]3O)[C@@H](N)C[C@H]2NC(=O)[C@@H](O)CN)OC[C@]1(C)O
[5] = test system: NCC[C@H](O)C(=O)N[C@@H]1C[C@H](N)[C@@H](O[C@H]2O[C@H](CN)CC[C@H]2N)[C@H](O)[C@H]1O[C@H]1O[C@H](CO)[C@@H](O)[C@H](N)[C@H]1O
[6] = test system: NCC[C@H](O)C(=O)N[C@@H]1C[C@H](N)[C@@H](O[C@H]2O[C@H](CN)[C@@H](O)[C@H](O)[C@H]2O)[C@H](O)[C@H]1O[C@H]1O[C@H](CO)[C@@H](O)[C@H](N)[C@H]1O
[7] = test system: CN[C@@H]1[C@@H](O)[C@@H](O[C@@H]2[C@@H](O)[C@H](O[C@H]3OC(CN)=CC[C@H]3N)[C@@H](N)C[C@H]2N)OC[C@]1(C)O

AAC(6′)-Iag (Pseudomonas aeruginosa)
Km [1]: 3.27 ± 0.76 µM | kcat [1]: 0.15 ± 0.03 s⁻¹ | kcat/Km [1]: 46000 M⁻¹ s⁻¹ | Km [2]: 3.03 ± 0.64 µM | kcat [2]: 0.194 ± 0.02 s⁻¹ | kcat/Km [2]: 64000 M⁻¹ s⁻¹ | Km [3]: 52.1 ± 16 µM | kcat [3]: 0.29 ± 0.06 s⁻¹ | kcat/Km [3]: 5600 M⁻¹ s⁻¹ | Km [4]: 209 ± 88 µM | kcat [4]: 0.10 ± 0.03 s⁻¹ | kcat/Km [4]: 520 M⁻¹ s⁻¹ | Km [5]: 9.9 ± 1.2 µM | kcat [5]: 0.79 ± 0.07 s⁻¹ | kcat/Km [5]: 80000 M⁻¹ s⁻¹ | Km [6]: 189 ± 108 µM | kcat [6]: 0.11 ± 0.03 s⁻¹ | kcat/Km [6]: 780 M⁻¹ s⁻¹ | Km [7]: 8.81 ± 1.2 µM | kcat [7]: 0.745 ± 0.08 s⁻¹ | kcat/Km [7]: 85000 M⁻¹ s⁻¹
